ChEMBL document CHEMBL4043266, “Pentacyclic triterpenes as α-glucosidase and α-amylase inhibitors: Structure-activity relationships and the synergism with acarbose” (Bioorg Med Chem Lett, 2017)

Assays:
Conditions in all cases: Sus scrofa
[1] = compound: C[C@H]1[C@H](C)CC[C@]2(C(=O)O)CC[C@]3(C)C(=CC[C@@H]4[C@@]5(C)C[C@@H](O)[C@H](O)C(C)(C)[C@@H]5CC[C@]43C)[C@H]12; assay: Inhibition of porcine pancreatic alpha-amylase assessed as Km for substrate using starch as substrate at 15.6 uM by Michaelis-Menten plot analysis (reference value: 2.48 +/- 0.24 mg/ml)
[2] = compound: C[C@H]1[C@H](C)CC[C@]2(C(=O)O)CC[C@]3(C)C(=CC[C@@H]4[C@@]5(C)C[C@@H](O)[C@H](O)C(C)(C)[C@@H]5CC[C@]43C)[C@H]12; assay: Inhibition of porcine pancreatic alpha-amylase assessed as Km for substrate using starch as substrate at 31.2 uM by Michaelis-Menten plot analysis (reference value: 2.48 +/- 0.24 mg/ml)
[3] = compound: C[C@H]1[C@H](C)CC[C@]2(C(=O)O)CC[C@]3(C)C(=CC[C@@H]4[C@@]5(C)C[C@@H](O)[C@H](O)C(C)(C)[C@@H]5CC[C@]43C)[C@H]12; assay: Inhibition of porcine pancreatic alpha-amylase assessed as Vmax for substrate using starch as substrate at 15.6 uM by Michaelis-Menten plot analysis (reference value: 28.6 +/- 1.8 microg/ml/min)
[4] = compound: C[C@H]1[C@H](C)CC[C@]2(C(=O)O)CC[C@]3(C)C(=CC[C@@H]4[C@@]5(C)C[C@@H](O)[C@H](O)C(C)(C)[C@@H]5CC[C@]43C)[C@H]12; assay: Inhibition of porcine pancreatic alpha-amylase assessed as Vmax for substrate using starch as substrate at 31.2 uM by Michaelis-Menten plot analysis (reference value: 28.6 +/- 1.8 microg/ml/min)

B1: Pancreatic alpha-amylase (Sus scrofa), P00690 (protein)
chain: MKLFLLLSAFGFCWAQYAPQTQSGRTSIVHLFEWRWVDIALECERYLGPKGFGGVQVSPPNENIVVTNPSRPWWERYQPVSYKLCTRSGNENEFRDMVTRCNNVGVRIYVDAVINHMCGSGAAAGTGTTCGSYCNPGNREFPAVPYSAWDFNDGKCKTASGGIESYNDPYQVRDCQLVGLLDLALEKDYVRSMIADYLNKLIDIGVAGFRIDASKHMWPGDIKAVLDKLHNLNTNWFPAGSRPFIFQEVIDLGGEAIQSSEYFGNGRVTEFKYGAKLGTVVRKWSGEKMSYLKNWGEGWGFMPSDRALVFVDNHDNQRGHGAGGASILTFWDARLYKVAVGFMLAHPYGFTRVMSSYRWARNFVNGQDVNDWIGPPNNNGVIKEVTINADTTCGNDWVCEHRWRQIRNMVWFRNVVDGQPFANWWANGSNQVAFGRGNRGFIVFNNDDWQLSSTLQTGLPGGTYCDVISGDKVGNSCTGIKVYVSSDGTAQFSISNSAEDPFIAIHAESKL
- Km [1]: 2.28 mg/mL
- Km [2]: 2.69 mg/mL
- Vmax [3]: 21 µg/mL/min
- Vmax [4]: 14.3 µg/mL/min
